Tested on: MS2 coat protein
Assay: apparent KD of MS2 coat protein, switch OFF state (with FMN for OFF switches, without FMN for ON switches); designed switch direction (-1 OFF switch, 1 ON switch): -1; higher = weaker reporter binding
Settings: FMN input: 0 or 200 uM; Eterna round: R93 (includes R88 designs)
Outline: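 Titrations with SNAP-549-labelled MS2 coat protein ran in twofold steps from 0.7 or 1.5 nM to 3 µM, each step taking 0.8–1.5 h at the start and 10–20 min toward the end. The targets were designed RNA switches transcribed on-chip from Illumina sequencing clusters, held in 100 mM Tris-HCl pH 7.5, 80 mM KCl, 4 mM MgCl2, without or with constant ligand. Apparent KD was taken per design as the median of normalised cluster binding-curve fits.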

Compared with “CCCUCACAUGAGGAUCACCCAUGUUAGGAUAUCUACCAGGAGCCUAAAAUGGCCCAACGGAGAAGGAACGUGCA [Arbire]”, “CACGUACAUGAGGAUCACCCAUGUUAGGAUAUGCCGGGUAAGAGAAAACUAAAAACCCGUAGAAGGGACGAAAC [Bilbo Confounded 13 - Jieux - Exclusion 1]” is 1.7-fold higher in “apparent KD of MS2 coat protein” value: 16.9 nM for the first, 28.6 nM for the second.

“GUCAGCUGAGGAUAUACAGGUGAGGCCGCAGGACAAAAUAUACAUGAGGAUCACCCAUGUAGAAGGCGGAAGAC [Vegea]” and “AAAAAGUGAGGAUAUACGCGAACAAAAAAAAAAAAGAAAGCGUAGAAGGCACAUGAGGAUCACCCAUGUCCAAA [Alfred 64% 4]” are within 1.5-fold of each other in “apparent KD of MS2 coat protein” value: 44.5 nM for the first, 39 nM for the second.

First: AAAAAACAUGAGGAUCACCCAUGUAAGGAUAUCUAAAAUAAAAGAAAAAUAAAGAAAAGGAGAAGGUACAUGCA [JL wbt mod 26]
Second: AAAAAGUUAGGAUAUACAUGAGGAUCACCCAUGUACAUAUAUGGAGAAAAAAACAGUAGUAGAAGGGACAAAAA [EX2 Malc#12]
The “apparent KD of MS2 coat protein” value of the first is 1.7-fold higher: 34.5 nM for the first, 19.8 nM for the second.

“AAAAAAUCAGGAUAUACAUGAGGAUCACCCAUGUGAAAGAACGAUUAACGACCAGCAAGUAGAAGGGAUAAAAA [Ruby 81]” and “CUCAAGUAAGGAUAUUUAUGAAAUGAAGUGAAAGAAAAGAAAAAGAAGGUACAUGAGGAUCACCCAUGUUAGAA [EteRNA is fun!]” are within 1.5-fold of each other in “apparent KD of MS2 coat protein” value: 19.7 nM for the first, 19.6 nM for the second.

Going from “AAGAAAGGAGGAUAUACAUGAGGAUCACCCAUGUAAAAGAAAGAAAGGGAAAAGAAAAGUAGAAGGCCUAAGAA [Shoshenq IV]” to “AAAGGACGAGGAUAUACAUGAGGAUCACCCAUGUAAAAAACAUAGUAAAAGUGCUUGUGUAGAAGGCGUCCAAA [Meechl Ex3 2 R2 v9]”, the “apparent KD of MS2 coat protein” value rises from 41.2 nM to 194 nM (4.7-fold).

“CAGUACUGAGGAUAUACAUGAGGAUCACCCAUGUGUUCCAGCUAGGAAACUAGCAAAAGUAGAAGGCAGUACUG [Ex3: 828]” and “AGUUGGCGAGGAUAUACAUGAGGAUCACCCAUGUGAGAGAUAAAAGUGAGAAAGAAAAGUAGAAGGCGCUAACA [JL Lego Mod 20]” are within 1.5-fold of each other in “apparent KD of MS2 coat protein” value: 343 nM for the first, 262 nM for the second.

First: AUCAACCUAGGAUAUACAUGAGGAUCACCCAUGUACAGAUACAACAAGGGAAACACACGUAGAAGGAGGAAGAU [JR_Exc003_Sub1205]
Second: AAAACACAUGAGGAUCACCCAUGUGAGGAUAUGCUAUGGAAAAUAAAAAUAAAACAUAGCAGAAGGCGCAGGAA [Denovo 20]
The “apparent KD of MS2 coat protein” value of the first is 2.3-fold higher: 52.1 nM for the first, 22.9 nM for the second.

“AGACAUACAGGAUAUACAUGGGAAAAAAAAAAAAAAAUUCUACAUGAGGAUCACCCAUGUAGAAGGGUAUGUCA [Ex2 Design 171: Random 1B]” and “AAAACACAUGAGGAUCACCCAUGUGAGGAUAUGAACGAAAUAAAAUAAAAAUAAAAGUUCAGAAGGCACAAAAA [Mat - Exclusion 1 - Eli mod - D13]” are within 1.5-fold of each other in “apparent KD of MS2 coat protein” value: 31.1 nM for the first, 36.6 nM for the second.

Going from “AAGCCACAUGAGGAUCACCCAUGUAAGGAUAUGAACGAAAUAAAAUAAAAAUAAAAGUUCAGAAGGUACAAAAA [Mat - Exclusion 1 - Eli mod - D23]” to “AAAAAACAUGAGGAUCACCCAUGUCAGGAUAUCCGGUUCUUAAAAAAAAAAAGGCGUUGGAGAAGGGACAUUCC [Chica Displaced 11 - Jieux - Exclusion 1]”, the “apparent KD of MS2 coat protein” value rises from 21.9 nM to 38 nM (1.7-fold).

First: AGUAACCAAGGAUAUACAAAACCUGUGAUCGAAUGGAUUUUACAUGAGGAUCACCCAUGUAGAAGGUGGAAAGG [Xeedce]
Second: UUUAUGUGAGGAUAUGUACAGAAAAAAAAGGGUGUAACUGUACAGAAGGCACAUGAGGAUCACCCAUGUGAAUA [EX4 381: S S Pseudoknot 6]
The “apparent KD of MS2 coat protein” value of the first is 6.2-fold lower: 35 nM for the first, 216 nM for the second.

Compared with “AACUAGCUAGGAUAUACAUGAGGAUCACCCAUGUAAAAAAAAAAAAAAAGAUCAAAAUGUAGAAGGAGCUAGUA [Design 2 - Brourd - Exclusion 3]”, “AAAAGCUCAGGAUAUACGGUCUGUUGUUGAAAAAGUAAAAAACAUGAGGAUCACCCAUGUAGAAGGGAGCGAAA [Exclusion2-cac1]” is 2-fold higher in “apparent KD of MS2 coat protein” value: 58.5 nM for the first, 115 nM for the second.

Going from “AAAAAGUAAGGAUAUAGCAAAGGUCACGAAAGUGACAAAGGCUAGAAGGUACAUGAGGAUCACCCAUGUCCAAG [Mat - Exclusion 4 - Eli mod - D100]” to “AAAAUACAUGAGGAUCACCCAUGUGAGGAUAUUAGAAAGGGAAUAAAAUAACUUAAACUAAGAAGGCACAAAAA [Ex 1 May 28]”, the “apparent KD of MS2 coat protein” value rises from 16.6 nM to 27.7 nM (1.7-fold).

“AAGAACCGAGGAUAUACAUGAGGAUCACCCAUGUAAAAGAAAGAAGGGAAAGAGAAAAGUAGAAGGCGGAAGAA [Usermaatre Shoshenq VI]” and “AAAAACGGAGGAUAUACAAAUUAAGGAAGAAAACACGAAAAACAUGAGGAUCACCCAUGUAGAAGGCCGGAAAA [Ex 2 #3]” are within 1.5-fold of each other in “apparent KD of MS2 coat protein” value: 34.3 nM for the first, 29.7 nM for the second.

Compared with “AAGAAGCUAGGAUAUACAUGAGGAUCACCCAUGUAAAAGAAAGAAAGGGAAAAGAAAAGUAGAAGGAGCAAGAA [Netjerikheperre-setpenamun Siamun-meryamun]”, “AAAACGGCAGGAUAUACAGAUGAGAACUAGACCGAAAAAAAACAUGAGGAUCACCCAUGUAGAAGGGCCAAAAA [Ex2 Malc#7]” is 2-fold higher in “apparent KD of MS2 coat protein” value: 18.1 nM for the first, 36.8 nM for the second.

First: AGCUAGUCAGGAUAUACGAAAAUGAUAGAAGACGUAAGGGAACAUGAGGAUCACCCAUGUAGAAGGGACUAGCA [Diamond 47]
Second: AAAAAGUCAGGAUAUACAUGAGGAUCACCCAUGUGAAAGAACGAUUAACGACCAGCAAGUAGAAGGGACAAAAA [Ruby 80]
The “apparent KD of MS2 coat protein” value of the first is 3-fold higher: 63.1 nM for the first, 20.8 nM for the second.

Compared with “UCCGGACAUGAGGAUCACCCAUGUGAGGAUAUAUAAAGUGGGACUAGAAACAGUCCCAAUAGAAGGCACAUGAC [Esarbiorar]”, “AAAAAGUGAGGAUAUUCGGAUAGGAAAACGAAAACCUAUCCGAAGAAGGCACAUGAGGAUCACCCAUGUGGGAA [67% Ecls-II - Early G + late G segment 3]” is 4.3-fold higher in “apparent KD of MS2 coat protein” value: 17.6 nM for the first, 75.9 nM for the second.

First: AGUAGUACAGGAUAUACAUGAGGAUCACCCAUGUGAAAAAUAAGUGGCGUACCACAAAGUAGAAGGGUACUACA [Mat - Exclusion 3 - JL mod - D37]
Second: AGAAAGUCAGGAUAUGCGAAGGCGUCUGAUAGACGAGGCUAGCAGAAGGGACAUGAGGAUCACCCAUGUGAAGA [Mat - Exclusion 4 - Eli mod - D85]
The “apparent KD of MS2 coat protein” value of the first is 1.6-fold higher: 141 nM for the first, 86.4 nM for the second.

“CUCAUGUCAGGAUAUGUAGCAUGAUACGAAAGUAUCAUGCUACAGAAGGGACAUGAGGAUCACCCAUGUGAUCA [Ex4: 941]” and “AAAAAACAUGAGGAUCACCCAUGUGAGGAUAUGAAAAUACUAAGACAACAGUAAUCAAUCAGAAGGCACAACAA [JR_Exc--1_Sub1209]” are within 1.5-fold of each other in “apparent KD of MS2 coat protein” value: 25.5 nM for the first, 25.8 nM for the second.

First: AGUAAACAUGAGGAUCACCCAUGUGAGGAUAUCGAAAAGAAAAGAAAAGAAAGAAGAAUGAGAAGGCACAAGAA [Huni]
Second: UAAAGACAUGAGGAUCACCCAUGUGAGGAUAUAGGUGUAUGCAAAAAAAAGCAUACACCUAGAAGGCACAGAAA [JR_Exc001_Sub303]
The “apparent KD of MS2 coat protein” value of the first is 2.1-fold lower: 37 nM for the first, 76.3 nM for the second.

First: AAAUAGUUAGGAUAUACAUGAGGAUCACCCAUGUGCACUUAUGGAGAAUAGGGUAAUGGUAGAAGGGACUAAAA [EX2 Malc#21]
Second: CUCAAGUGAGGAUAUACAAAUAGUAAAUAAGUAUAACAAAAGUAGAAGGCACAUGAGGAUCACCCAUGUAAAUA [JR_Exc004_Sub302]
The “apparent KD of MS2 coat protein” value of the first is 1.5-fold higher: 39.7 nM for the first, 26.3 nM for the second.

“UGCAUGUAAGGAUAUGCAACCGGCGCUCAUUAACCGGUCAAGCAGAAGGUACAUGAGGAUCACCCAUGUGUCCG [Esteleus]” and “AAGAAGUCAGGAUAUGCCAAAGAUCACGAAAGUGACAAAGGGCAGAAGGGACAUGAGGAUCACCCAUGUAAAGA [Opal 3]” are within 1.5-fold of each other in “apparent KD of MS2 coat protein” value: 52.2 nM for the first, 62.4 nM for the second.

“AGGAAACAUGAGGAUCACCCAUGUUAGGAUAUGAACGAAAUAAAAUAAAAAUAAAAGUUCAGAAGGGACAAAAA [Mat - Exclusion 1 - Eli mod - D20]” and “UAAAAGUGAGGAUAUUCGGAUAGGAAAACGAAAACCUAUCCGAAGAAGGCACAUGAGGAUCACCCAUGUAAAAU [Mat - Exaclusion 4 - Eli mod - D37]” are within 1.5-fold of each other in “apparent KD of MS2 coat protein” value: 49.6 nM for the first, 48 nM for the second.

For “AAAAAACAUGAGGAUCACCCAUGUGAGGAUAUUAAAAAUAAGAAGGCAUAAAAAAAAAUAAGAAGGCACAUGAA [Meechl MS2 Ex1]”, the “apparent KD of MS2 coat protein” value was 33.2 nM.
